Data reported in PMC9210659.

Molecular target: C16-Pks13(S1533A) (Pks13(S1533A) loaded with a C16 chain on the AT catalytic serine) (Mycobacterium tuberculosis H37Rv) (UniProt I6X8D2)
Test: SEC + other: SAXS

C16-Pks13(S1533A) (Pks13(S1533A) loaded with a C16 chain on the AT catalytic serine) (from UniProt I6X8D2 1-1733) (enzyme)
percent dimer: 60% | stoichiometry N: 2
